How the values were obtained:
[1] = target: Bb, the activated form of factor B (UniProt P00751); assay: SPR (Biacore) at 25° C., half-life of the C3 convertase formed on CVF on the chip
Factor B [2] = target: Factor B (UniProt P00751); assay: SPR (Biacore), CVF on the chip, factor B in solution, with factor D and Mg
Factor H = Factor H (UniProt P08603); assay: SPR (Biacore), CVF on the chip, factor H in solution
Factor B [3] = target: Factor B (UniProt P00751); assay: SPR (Biacore), CVF on the chip, factor B in solution, with Mg
C5 = C5 (UniProt P01031); assay: SPR (Biacore), CVF on the chip, C5 in solution
Chain of C5 (P01031 19-673 limits assumed, form in doubt, chain 1 of 2): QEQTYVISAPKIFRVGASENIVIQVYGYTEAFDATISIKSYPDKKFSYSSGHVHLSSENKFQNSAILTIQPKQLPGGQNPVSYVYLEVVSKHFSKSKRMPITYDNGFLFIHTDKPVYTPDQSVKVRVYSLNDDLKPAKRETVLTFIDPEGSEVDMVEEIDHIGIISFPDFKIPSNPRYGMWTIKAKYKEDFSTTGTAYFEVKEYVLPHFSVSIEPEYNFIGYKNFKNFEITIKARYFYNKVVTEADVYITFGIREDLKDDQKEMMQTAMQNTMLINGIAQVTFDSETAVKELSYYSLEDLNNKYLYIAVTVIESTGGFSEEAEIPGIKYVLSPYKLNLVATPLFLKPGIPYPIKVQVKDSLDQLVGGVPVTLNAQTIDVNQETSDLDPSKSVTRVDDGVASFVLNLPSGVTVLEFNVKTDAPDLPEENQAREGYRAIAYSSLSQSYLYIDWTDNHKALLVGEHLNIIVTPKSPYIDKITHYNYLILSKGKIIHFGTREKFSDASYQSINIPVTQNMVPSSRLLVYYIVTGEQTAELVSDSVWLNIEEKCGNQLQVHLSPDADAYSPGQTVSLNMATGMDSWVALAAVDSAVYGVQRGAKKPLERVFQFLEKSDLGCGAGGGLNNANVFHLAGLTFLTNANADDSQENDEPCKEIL
Chain of C5 (P01031 678-1676 limits assumed, form in doubt, chain 2 of 2): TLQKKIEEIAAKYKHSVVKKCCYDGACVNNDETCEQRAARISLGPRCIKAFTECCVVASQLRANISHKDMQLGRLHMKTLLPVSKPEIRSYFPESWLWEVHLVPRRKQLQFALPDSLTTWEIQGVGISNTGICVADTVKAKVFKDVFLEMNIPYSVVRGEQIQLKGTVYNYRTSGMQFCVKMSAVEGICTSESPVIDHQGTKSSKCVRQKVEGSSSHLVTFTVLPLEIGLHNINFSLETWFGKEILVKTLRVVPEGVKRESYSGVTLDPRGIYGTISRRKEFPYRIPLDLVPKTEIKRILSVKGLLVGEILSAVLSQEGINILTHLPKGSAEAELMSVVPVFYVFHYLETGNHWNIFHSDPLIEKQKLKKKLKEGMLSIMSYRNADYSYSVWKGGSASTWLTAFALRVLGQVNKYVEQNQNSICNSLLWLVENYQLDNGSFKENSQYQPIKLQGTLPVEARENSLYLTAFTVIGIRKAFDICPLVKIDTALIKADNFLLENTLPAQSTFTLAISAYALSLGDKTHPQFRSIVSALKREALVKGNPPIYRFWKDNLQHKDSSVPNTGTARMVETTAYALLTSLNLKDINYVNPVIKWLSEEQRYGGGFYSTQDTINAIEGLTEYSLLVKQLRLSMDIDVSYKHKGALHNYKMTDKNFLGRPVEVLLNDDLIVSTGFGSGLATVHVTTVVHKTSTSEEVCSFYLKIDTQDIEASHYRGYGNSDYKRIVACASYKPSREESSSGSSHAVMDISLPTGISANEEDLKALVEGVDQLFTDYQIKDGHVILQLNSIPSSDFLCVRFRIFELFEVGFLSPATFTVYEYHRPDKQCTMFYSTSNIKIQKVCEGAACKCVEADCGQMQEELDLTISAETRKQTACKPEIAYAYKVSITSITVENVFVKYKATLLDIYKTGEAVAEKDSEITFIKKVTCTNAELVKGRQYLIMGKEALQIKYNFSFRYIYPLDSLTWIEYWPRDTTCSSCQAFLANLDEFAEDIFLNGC

Factor B [4] = target: Factor B (UniProt P00751); assay: SPR (Biacore), CVF on the chip, factor B in solution, in EDTA

Chain of Factor B (P00751 26-764 limits assumed): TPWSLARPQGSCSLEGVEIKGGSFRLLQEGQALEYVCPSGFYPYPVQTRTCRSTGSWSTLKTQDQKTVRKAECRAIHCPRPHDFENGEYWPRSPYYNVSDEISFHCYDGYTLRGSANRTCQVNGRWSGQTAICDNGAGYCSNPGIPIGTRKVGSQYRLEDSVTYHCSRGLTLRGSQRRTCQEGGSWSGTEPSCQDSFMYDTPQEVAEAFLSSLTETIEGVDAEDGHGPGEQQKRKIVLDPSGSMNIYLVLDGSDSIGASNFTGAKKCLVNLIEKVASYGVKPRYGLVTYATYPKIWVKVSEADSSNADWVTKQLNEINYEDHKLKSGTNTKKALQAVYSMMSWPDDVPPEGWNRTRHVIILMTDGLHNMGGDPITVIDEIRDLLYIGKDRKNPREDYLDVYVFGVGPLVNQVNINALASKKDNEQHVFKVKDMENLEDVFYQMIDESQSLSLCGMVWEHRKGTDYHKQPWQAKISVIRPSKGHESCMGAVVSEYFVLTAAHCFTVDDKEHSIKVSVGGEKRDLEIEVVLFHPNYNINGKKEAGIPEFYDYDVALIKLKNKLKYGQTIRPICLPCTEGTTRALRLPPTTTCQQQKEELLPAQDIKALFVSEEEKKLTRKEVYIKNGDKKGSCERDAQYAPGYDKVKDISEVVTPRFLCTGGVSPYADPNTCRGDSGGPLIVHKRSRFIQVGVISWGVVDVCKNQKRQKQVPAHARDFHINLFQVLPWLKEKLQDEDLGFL
Chain of Cobra Venom Factor (Q91132 23-649 limits assumed): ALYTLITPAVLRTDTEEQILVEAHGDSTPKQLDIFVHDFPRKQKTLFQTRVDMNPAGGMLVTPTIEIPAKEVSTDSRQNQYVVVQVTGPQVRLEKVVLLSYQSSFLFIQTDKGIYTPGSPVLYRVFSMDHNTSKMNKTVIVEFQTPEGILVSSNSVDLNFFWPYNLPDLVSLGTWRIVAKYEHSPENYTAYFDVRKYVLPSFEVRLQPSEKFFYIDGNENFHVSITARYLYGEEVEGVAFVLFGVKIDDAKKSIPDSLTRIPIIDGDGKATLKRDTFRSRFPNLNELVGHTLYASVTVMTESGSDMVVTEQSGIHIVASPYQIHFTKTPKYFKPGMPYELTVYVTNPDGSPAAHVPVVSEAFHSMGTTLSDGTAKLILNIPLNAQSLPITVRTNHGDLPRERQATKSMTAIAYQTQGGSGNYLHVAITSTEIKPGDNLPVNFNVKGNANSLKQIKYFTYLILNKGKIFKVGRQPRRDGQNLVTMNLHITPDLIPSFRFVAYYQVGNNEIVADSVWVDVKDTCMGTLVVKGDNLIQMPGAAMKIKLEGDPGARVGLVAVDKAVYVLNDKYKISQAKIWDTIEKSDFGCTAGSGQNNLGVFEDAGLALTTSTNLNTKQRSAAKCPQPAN
Chain of Cobra Venom Factor (Q91132 733-984 limits assumed): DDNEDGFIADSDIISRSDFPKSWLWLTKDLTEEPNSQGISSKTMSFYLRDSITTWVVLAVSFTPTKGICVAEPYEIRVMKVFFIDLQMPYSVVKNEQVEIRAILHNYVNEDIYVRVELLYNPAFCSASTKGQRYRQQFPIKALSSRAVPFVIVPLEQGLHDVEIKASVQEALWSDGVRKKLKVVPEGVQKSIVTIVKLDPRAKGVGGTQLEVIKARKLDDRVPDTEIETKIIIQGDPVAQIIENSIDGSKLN
Chain of Cobra Venom Factor (Q91132 1264-1642 limits assumed): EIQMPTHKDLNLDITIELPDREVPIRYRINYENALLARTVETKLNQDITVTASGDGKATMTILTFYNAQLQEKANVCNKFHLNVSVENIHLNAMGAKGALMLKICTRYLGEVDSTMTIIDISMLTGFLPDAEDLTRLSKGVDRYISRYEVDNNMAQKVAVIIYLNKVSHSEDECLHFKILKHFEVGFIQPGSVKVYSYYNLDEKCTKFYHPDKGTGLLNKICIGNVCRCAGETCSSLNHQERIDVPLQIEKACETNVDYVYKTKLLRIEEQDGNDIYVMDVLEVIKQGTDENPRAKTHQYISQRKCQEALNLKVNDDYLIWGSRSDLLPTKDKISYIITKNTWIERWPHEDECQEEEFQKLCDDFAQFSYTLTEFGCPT
Chain of Bb, the activated form of factor B (P00751 260-764 limits assumed): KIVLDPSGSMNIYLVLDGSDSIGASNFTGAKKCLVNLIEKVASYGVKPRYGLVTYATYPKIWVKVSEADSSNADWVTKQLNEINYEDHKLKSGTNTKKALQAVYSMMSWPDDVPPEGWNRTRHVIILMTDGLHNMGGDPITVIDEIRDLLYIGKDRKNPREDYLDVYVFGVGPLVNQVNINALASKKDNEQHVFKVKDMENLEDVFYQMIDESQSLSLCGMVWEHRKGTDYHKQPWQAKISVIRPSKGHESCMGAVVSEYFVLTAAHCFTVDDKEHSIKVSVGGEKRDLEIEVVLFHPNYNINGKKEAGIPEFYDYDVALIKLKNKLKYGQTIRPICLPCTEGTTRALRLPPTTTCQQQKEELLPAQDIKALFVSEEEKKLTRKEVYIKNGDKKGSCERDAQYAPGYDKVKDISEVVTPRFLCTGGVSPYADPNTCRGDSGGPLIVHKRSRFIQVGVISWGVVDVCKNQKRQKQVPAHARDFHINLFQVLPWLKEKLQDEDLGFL

Cobra Venom Factor (from UniProt Q91132 23-649; Q91132 733-984; Q91132 1264-1642)
T½ of C3 convertase [1]: 18.3 h
Amount of protein bound (RU) (Factor B [2]): 370 RU
Amount of protein bound (RU) (Factor H): -14 RU
Amount of protein bound (RU) (Factor B [3]): 298 RU
Amount of protein bound (RU) (C5): 617 RU
Amount of protein bound (RU) (Factor B [4]): 99 RU

— patent publication US20080311132A1
